In publication PMC6542541, “Broadly neutralizing antibodies from an individual that naturally cleared multiple hepatitis C virus infections uncover molecular determinants for E2 targeting and vaccine design” (PLoS Pathogens, 2019):

How the values were obtained:
HMAb 212.1.1 = test: global alanine scanning epitope mapping; settings: antibody at 2 μg/ml
HMAb CBH-5 = test: global alanine scanning epitope mapping; settings: antibody at 1 μg/ml
HC-1 = test: global alanine scanning epitope mapping; settings: antibody at 1 μg/ml
HC84.26 = test: global alanine scanning epitope mapping; settings: antibody at 1 μg/ml
HMAb HC-11 = test: global alanine scanning epitope mapping; settings: antibody at 1 μg/ml
HMAb CBH-7 = test: global alanine scanning epitope mapping; settings: antibody at 1 μg/ml
[1] = biological target: H77C 1a recombinant E1E2 (hepatitis C virus genotype 1a, isolate H77C) (UniProt P27958)
[2] = biological target: H77C 1a recombinant E1E2 (hepatitis C virus genotype 1a, isolate H77C) (UniProt P27958); remark: listed apart in the source
[3] = biological target: T1, complex of Hepatitis C virus genotype 1a P27958 (hepatitis C virus genotype 1a, isolate …, UniProt P27958); test: ELISA; blocking of E2 binding to CD81-LEL: HMAb at 10 μg/ml pre-incubated with H77C 1a E1E2 lysate (1 μg/ml E2) for 20 min at 4°C, then added to CD81-LEL wells; settings: one partner purified
T1 construct: envelope glycoprotein E1, cut product of the HCV polyprotein, genotype 1a isolate H77C; envelope glycoprotein E2, cut product of the HCV polyprotein, genotype 1a isolate H77C; residue numbers count on the H77C polyprotein; also called wt 1a H77C E1E2; 1a H77C E2

Molecule	percent of parent (HMAb 212.1.1)	percent of parent (HMAb CBH-5)	percent of parent (HC-1)	percent of parent (HC84.26)	percent of parent (HMAb HC-11)	percent of parent (HMAb CBH-7)	% neutralization of H77 (1a) Core-NS2 HCVcc at 25 μg/ml (FFU reduction) [1]	IC50 of neutralization of H77 (1a) Core-NS2 HCVcc (FFU reduction) [1]	% neutralization of 1a H77C HCVpp at 20 μg/ml [2]	binding result [3]
H77C 1a recombinant E1E2 (from UniProt P27958) A426G	8 % WT	0 % WT	35 % WT	88 % WT	23 % WT	253 % WT	–	–	–	–
H77C 1a recombinant E1E2 (from UniProt P27958) H638A	26 % WT	6 % WT	47 % WT	34 % WT	27 % WT	42 % WT	–	–	–	–
H77C 1a recombinant E1E2 (from UniProt P27958) D533A	99 % WT	54 % WT	73 % WT	93 % WT	66 % WT	77 % WT	–	–	–	–
H77C 1a recombinant E1E2 (from UniProt P27958) R639A	88 % WT	48 % WT	100 % WT	87 % WT	76 % WT	86 % WT	–	–	–	–
H77C 1a recombinant E1E2 (from UniProt P27958) N532A	152 % WT	108 % WT	82 % WT	108 % WT	71 % WT	101 % WT	–	–	–	–
H77C 1a recombinant E1E2 (from UniProt P27958) W529A	9 % WT	35 % WT	0 % WT	122 % WT	23 % WT	187 % WT	–	–	–	–
HMAb 212.1.1 (antibody)	–	–	–	–	–	–	41%	36 µg/mL	89%	–
H77C 1a recombinant E1E2 (from UniProt P27958) T435A	86 % WT	46 % WT	67 % WT	117 % WT	49 % WT	89 % WT	–	–	–	–
H77C 1a recombinant E1E2 (from UniProt P27958) L546A	139 % WT	92 % WT	100 % WT	100 % WT	92 % WT	112 % WT	–	–	–	–
H77C 1a recombinant E1E2 (from UniProt P27958) W437A	58 % WT	3 % WT	67 % WT	98 % WT	0 % WT	–	–	–	–	–
H77C 1a recombinant E1E2 (from UniProt P27958) L433A	2 % WT	128 % WT	97 % WT	122 % WT	103 % WT	103 % WT	–	–	–	–
H77C 1a recombinant E1E2 (from UniProt P27958) S424A	41 % WT	10 % WT	53 % WT	75 % WT	18 % WT	163 % WT	–	–	–	–
H77C 1a recombinant E1E2 (from UniProt P27958) E431A	147 % WT	224 % WT	97 % WT	105 % WT	64 % WT	101 % WT	–	–	–	–
H77C 1a recombinant E1E2 (from UniProt P27958) L427A	3 % WT	6 % WT	51 % WT	100 % WT	26 % WT	370 % WT	–	–	–	–
H77C 1a recombinant E1E2 (from UniProt P27958) D535A	6 % WT	0 % WT	14 % WT	–	1 % WT	116 % WT	–	–	–	–
H77C 1a recombinant E1E2 (from UniProt P27958) N430A	143 % WT	–	39 % WT	85 % WT	–	155 % WT	–	–	–	–
H77C 1a recombinant E1E2 (from UniProt P27958) Y443A	158 % WT	0 % WT	87 % WT	52 % WT	1 % WT	82 % WT	–	–	–	–
H77C 1a recombinant E1E2 (from UniProt P27958) P545A	70 % WT	42 % WT	78 % WT	69 % WT	42 % WT	42 % WT	–	–	–	–
H77C 1a recombinant E1E2 (from UniProt P27958) N548A	–	51 % WT	88 % WT	85 % WT	70 % WT	–	–	–	–	–

Molecule	percent of parent (HMAb 212.1.1)	percent of parent (HMAb CBH-5)	percent of parent (HC-1)	percent of parent (HC84.26)	percent of parent (HMAb HC-11)	percent of parent (HMAb CBH-7)	% neutralization of H77 (1a) Core-NS2 HCVcc at 25 μg/ml (FFU reduction) [1]	IC50 of neutralization of H77 (1a) Core-NS2 HCVcc (FFU reduction) [1]	% neutralization of 1a H77C HCVpp at 20 μg/ml [2]	binding result [3]
H77C 1a recombinant E1E2 (from UniProt P27958) F442A	148 % WT	1 % WT	–	–	1 % WT	113 % WT	–	–	–	–
H77C 1a recombinant E1E2 (from UniProt P27958) S432A	108 % WT	73 % WT	–	102 % WT	57 % WT	104 % WT	–	–	–	–
H77C 1a recombinant E1E2 (from UniProt P27958) E637A	–	40 % WT	246 % WT	–	202 % WT	145 % WT	–	–	–	–
H77C 1a recombinant E1E2 (from UniProt P27958) G440A	83 % WT	86 % WT	73 % WT	82 % WT	–	77 % WT	–	–	–	–
H77C 1a recombinant E1E2 (from UniProt P27958) W549A	66 % WT	46 % WT	–	–	50 % WT	5 % WT	–	–	–	–
H77C 1a recombinant E1E2 (from UniProt P27958) L441A	92 % WT	0 % WT	85 % WT	12 % WT	75 % WT	100 % WT	–	–	–	–
H77C 1a recombinant E1E2 (from UniProt P27958) N428A	15 % WT	0 % WT	34 % WT	74 % WT	7 % WT	134 % WT	–	–	–	–
H77C 1a recombinant E1E2 (from UniProt P27958) G436A	103 % WT	11 % WT	73 % WT	–	0 % WT	78 % WT	–	–	–	–
H77C 1a recombinant E1E2 (from UniProt P27958) T425A	18 % WT	1 % WT	51 % WT	69 % WT	10 % WT	101 % WT	–	–	–	–
H77C 1a recombinant E1E2 (from UniProt P27958) T534A	162 % WT	125 % WT	88 % WT	116 % WT	83 % WT	101 % WT	–	–	–	–
H77C 1a recombinant E1E2 (from UniProt P27958) N434A	18 % WT	92 % WT	102 % WT	97 % WT	88 % WT	–	–	–	–	–
H77C 1a recombinant E1E2 (from UniProt P27958) L438A	87 % WT	4 % WT	77 % WT	122 % WT	1 % WT	89 % WT	–	–	–	–
H77C 1a recombinant E1E2 (from UniProt P27958) P544A	72 % WT	45 % WT	–	–	41 % WT	39 % WT	–	–	–	–
H77C 1a recombinant E1E2 (from UniProt P27958) G547A	57 % WT	30 % WT	–	–	36 % WT	28 % WT	–	–	–	–
H77C 1a recombinant E1E2 (from UniProt P27958) C429A	0 % WT	2 % WT	0 % WT	24 % WT	0 % WT	157 % WT	–	–	–	–
H77C 1a recombinant E1E2 (from UniProt P27958) G530A	9 % WT	76 % WT	14 % WT	71 % WT	3 % WT	–	–	–	–	–
H77C 1a recombinant E1E2 (from UniProt P27958) A439G	84 % WT	53 % WT	83 % WT	108 % WT	–	–	–	–	–	–
H77C 1a recombinant E1E2 (from UniProt P27958) V636A	77 % WT	34 % WT	89 % WT	72 % WT	63 % WT	–	–	–	–	–
HMAb HC-11 (antibody, V domains shown, germline IGHV1-69, 92% nucleotide identity; heavy chain CDR3; germline kappa 3-20, 96% nucleotide identity; light chain CDR3; also called domain B HMAb) VH: EVQLVESGAEVKKPGSSVKVSCKASGATFSSFIFSWVRQAPGQGPEWMGGIIPMFGTAKYAPRLQGRVTITADESTSTAYMDLSSLRFEDTAVYYCAMEVPGFCRGGSCSGYMDVWGKGTLVTVSP VL: AAVLTQSPGTLSLSPGERATLSCRASHSVSSSNLAWYQQKPGQAPRLLMYGASRRATGIPDRFSGSGSGTDFTLTISRLEPEDFAVYYCQQYGSSPITFGQGTRLDIK	–	–	–	–	–	–	–	–	–	binds
